Data on eight molecules can be found in patent US20260209316A1 (US Dept. of Health and Human Services, published 2026).

Experiment [1] addresses T1, full-length Sudan GP (GPFL) (Sudan virus (SUDV), UniProt Q7T9D9 33-650).
T1 construct: also called Sudan GPFL; GP(S)FL
T1 sequence: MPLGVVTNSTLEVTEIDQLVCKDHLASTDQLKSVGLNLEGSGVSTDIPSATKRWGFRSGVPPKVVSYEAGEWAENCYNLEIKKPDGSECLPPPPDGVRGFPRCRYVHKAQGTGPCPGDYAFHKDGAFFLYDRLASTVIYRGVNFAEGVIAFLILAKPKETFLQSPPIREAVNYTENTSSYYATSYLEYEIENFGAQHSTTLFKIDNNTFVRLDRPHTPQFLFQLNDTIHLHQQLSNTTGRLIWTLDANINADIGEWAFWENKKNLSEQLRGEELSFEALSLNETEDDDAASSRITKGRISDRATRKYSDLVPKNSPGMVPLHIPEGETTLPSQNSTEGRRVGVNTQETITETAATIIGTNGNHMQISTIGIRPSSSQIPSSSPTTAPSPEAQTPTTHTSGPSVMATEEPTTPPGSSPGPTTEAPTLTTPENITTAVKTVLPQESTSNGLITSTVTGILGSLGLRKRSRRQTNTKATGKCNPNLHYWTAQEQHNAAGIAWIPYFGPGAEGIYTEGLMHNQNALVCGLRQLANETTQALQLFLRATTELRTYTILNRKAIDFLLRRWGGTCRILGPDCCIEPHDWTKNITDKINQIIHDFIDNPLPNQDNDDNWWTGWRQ
Briefly: ELISA on coated GP. For orientation: ELISA stands for enzyme-linked immunosorbent assay.

Experiment [2] deals with T2, full-length Zaire GP (GPFL) (Ebola (Zaire) virus (EBOV), UniProt Q05320 33-632).
T2 construct: also called Zaire GPFL; GP(Z)FL
T2 sequence: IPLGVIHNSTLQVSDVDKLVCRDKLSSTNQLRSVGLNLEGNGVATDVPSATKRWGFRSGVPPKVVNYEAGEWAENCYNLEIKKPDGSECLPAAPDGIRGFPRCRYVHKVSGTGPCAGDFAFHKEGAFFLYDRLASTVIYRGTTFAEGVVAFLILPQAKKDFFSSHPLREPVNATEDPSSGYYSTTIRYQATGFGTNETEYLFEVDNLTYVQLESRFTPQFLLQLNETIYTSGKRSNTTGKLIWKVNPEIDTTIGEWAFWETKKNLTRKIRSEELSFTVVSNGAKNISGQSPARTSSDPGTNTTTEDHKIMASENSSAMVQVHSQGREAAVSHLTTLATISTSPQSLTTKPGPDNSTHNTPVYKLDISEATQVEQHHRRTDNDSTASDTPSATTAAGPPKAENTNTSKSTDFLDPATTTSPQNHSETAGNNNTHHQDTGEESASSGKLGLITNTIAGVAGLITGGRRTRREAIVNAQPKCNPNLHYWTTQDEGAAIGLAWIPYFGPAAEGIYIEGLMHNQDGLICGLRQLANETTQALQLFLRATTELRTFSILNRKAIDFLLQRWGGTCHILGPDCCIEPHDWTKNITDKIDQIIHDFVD
Description: ELISA on coated GP.

Experiment [3] has as its target T3, SUDV GP on pseudotyped lentiviral vector (Sudan virus (SUDV), UniProt Q7T9D9 33-676).
T3 sequence: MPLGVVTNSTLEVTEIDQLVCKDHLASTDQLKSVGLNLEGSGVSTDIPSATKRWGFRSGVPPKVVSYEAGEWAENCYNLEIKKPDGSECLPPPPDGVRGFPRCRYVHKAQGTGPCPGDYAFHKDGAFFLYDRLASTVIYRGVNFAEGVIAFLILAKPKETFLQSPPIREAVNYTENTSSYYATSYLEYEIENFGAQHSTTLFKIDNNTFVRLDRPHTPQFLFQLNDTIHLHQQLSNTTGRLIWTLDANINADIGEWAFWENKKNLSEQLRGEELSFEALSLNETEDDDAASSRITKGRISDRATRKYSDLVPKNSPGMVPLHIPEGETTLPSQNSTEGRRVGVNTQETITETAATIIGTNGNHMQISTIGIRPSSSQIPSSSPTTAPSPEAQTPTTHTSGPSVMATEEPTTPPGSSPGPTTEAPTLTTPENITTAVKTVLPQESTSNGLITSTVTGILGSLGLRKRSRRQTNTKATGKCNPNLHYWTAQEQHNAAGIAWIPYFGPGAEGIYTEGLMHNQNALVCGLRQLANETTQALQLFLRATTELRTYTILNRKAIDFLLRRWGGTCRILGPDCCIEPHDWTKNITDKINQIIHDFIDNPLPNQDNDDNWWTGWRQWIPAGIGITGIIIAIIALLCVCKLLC
Briefly: cell-based or functional assay.

In experiment [4] the target is T4, EBOV GP on pseudotyped lentiviral vector (Ebola (Zaire) virus (EBOV), UniProt Q05320 33-676).
T4 sequence: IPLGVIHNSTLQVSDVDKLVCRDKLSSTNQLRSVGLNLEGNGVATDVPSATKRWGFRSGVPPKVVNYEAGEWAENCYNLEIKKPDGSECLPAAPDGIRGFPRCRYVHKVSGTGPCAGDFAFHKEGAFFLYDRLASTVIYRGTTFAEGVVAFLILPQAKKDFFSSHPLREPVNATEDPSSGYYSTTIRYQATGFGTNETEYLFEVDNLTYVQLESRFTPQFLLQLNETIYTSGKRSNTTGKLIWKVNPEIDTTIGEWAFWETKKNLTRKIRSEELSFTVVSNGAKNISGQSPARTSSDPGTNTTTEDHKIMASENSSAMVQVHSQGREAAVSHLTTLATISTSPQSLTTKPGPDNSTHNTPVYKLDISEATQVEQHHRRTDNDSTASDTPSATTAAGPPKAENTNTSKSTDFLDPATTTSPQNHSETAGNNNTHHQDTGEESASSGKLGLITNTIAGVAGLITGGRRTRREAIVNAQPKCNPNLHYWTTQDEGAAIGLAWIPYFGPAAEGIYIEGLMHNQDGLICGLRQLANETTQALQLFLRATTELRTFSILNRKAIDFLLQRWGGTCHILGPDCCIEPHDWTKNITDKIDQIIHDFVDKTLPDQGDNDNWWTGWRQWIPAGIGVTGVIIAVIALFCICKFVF
Description: cell-based or functional assay.

Experiment [5] addresses T1, full-length Sudan GP (GPFL). Briefly: BLI, Fab, pH 5.3. In general terms: Biolayer interferometry detects binding as a change in optical thickness at a sensor tip.
The target is the same in experiment [6]. Description: BLI, Fab, pH 7.4.
The target of experiment [7] is T2, full-length Zaire GP (GPFL). Briefly: BLI, Fab, pH 7.4.

B1: antibody 191L (antibody, V domains shown)
VH: EVQLVESGGGLVQPGGSLRLSCAASGFTFSSYGIHWVRQAPGKGLEWVAIISYDGNKKFHADSVKDRFTISRDNSKNMLYLQMNNLKLEDTAVYYCARAYDSGYFAGSVFYYWGQGVLVTVSS
VL: EVVFTQPHSVSGSPGQTVTISCTRSSGSIDSEYVQWYQQRPGNAPTTVIYKDNQRPSGVPDRFSGSIDSSSNSASLAISGLKSEDEADYYCQSADGNYHPVFGEGTRLTVL
On to B1, for which the half-maximal effective concentration (EC50) (commonly the concentration that produces a half-maximal response) stood at 0.02 µg/mL in experiment [1] and 0.01 µg/mL in experiment [2]. In addition, the “IC50, microneutralization of GP-pseudotyped lentiviral vector on HEK293 cells” value (from here on “IC50, microneutralization”) in experiment [3] and in experiment [4] was more than 10 µg/mL throughout.

B2: antibody 315L (antibody, V domains shown)
VH: QVQLQESGPGLVKPSETLSLTCTVSGGSITGNYWTWVRQPPGKGLQYIGRFDAGGKTYYNPPLKSRVSILGDKSKNQVSLNLTSVTVADTGVYYCAREQWGQLLSGSFDVWGRGVLVTVSS
VL: SYELTQPPSVSVSPGQTARITCSGDALPDYYAHWYQQKSGQAPMLVIYKDTERPSGIPERFSGSSSGTTVSLTISGVQAEDEADYYCQSGDSSGNHWVFGGGTRLTVL
Turning to B2, the EC50 came to 0.01 µg/mL in experiment [1] and 1.8 µg/mL in experiment [2]. In experiment [3], the “IC50, microneutralization” value is more than 10 µg/mL.

B3: antibody 232L (antibody, V domains shown)
VH: KSQLVESGGGLVQPGGSLRLSCAASGFTFDAYAMHWVRQAPGEGLEWVTAISWSGSSTYYADSVKGRFTFSRDNAKNSLYLEMNSLRADDTAFYYCVKGGVYNWFDVWGPGVLVTVSS
VL: QSVLTQPPSVSGAPGQRVTISCTGSRSNIGGYYVSWYQQFPGTTPKLLIYQDNKRPSGVSDRFSGSKSGTSASLTITGLQTEDEADYYCLSYDSSLNGWVFGGGTRLTVL
B3: the EC50 in experiment [1] was 0.09 µg/mL; in experiment [2] it was 0.08 µg/mL. For the same molecule, the “IC50, microneutralization” value in experiment [3] and in experiment [4] was more than 10 µg/mL each time.

B4: antibody 231L (antibody, V domains shown)
VH: EVQLVESGGGLVQPGGSLRLSCAASAFTFDDYAMHWVRQAPGKGLEWVSGITWSGLSTYYADSVKGRFTISRDNAKNSLYLQMNSLRVEDTALYYCAKSGNNSPFSGLDSWGQGAVVTVSS
VL: QSVLTQPPSVSGAPGQRVTVSCTGSSSNIGAGSYVQWYQQLPGTAPKLLIYENNKRPSGVSDRFSGSKSGTSASLTITGLQSEDEADYYCQSYDSSLNAYIFGAGTRLTVL
Take B4: the 50% effective concentration (EC50) in experiment [1] came out at 0.4 µg/mL; in experiment [2] it was 0.002 µg/mL. In addition, the “IC50, microneutralization” value in experiment [3] and in experiment [4] was more than 10 µg/mL throughout.

B5: antibody 310L (antibody, V domains shown)
VH: EMQLVESGGGLVQPGGSLRLSCAASGFTFDAYAMHWVRQRPGKGLEWISGIIWSGRTTYYADSVKGRFTFSRDNSKNSLYLEMNSLKPEDTALYYCAKDSWNYGVYNSLDVWGRGILVTVSS
VL: QSVLTQPPSVSGAPGQRVTISCTGSSSNVGPHYVSWYQHLPGTTPKLLIFQDNKRPSGVSDRFSGSKSASSASLTITGLQTEDEADYYCLSYDSSLNVYIFGSGTRLTVL
Take B5: the EC50 in experiment [1] turned out to be 0.04 µg/mL; in experiment [2], 0.01 µg/mL. The “IC50, microneutralization” value in experiment [3] and in experiment [4] was more than 10 µg/mL each time.

B6: Fab generated from 316L (Fab, V domains shown)
VH: EERLVESGGGLVQPGGSLRLSCAASGFTFGDYAMHWVRQVPGKSLEWLSGISWSGYTTYSADSVKGRFTISRDNAKNSLYLQMNRLRPEDTGLYYCVTLIGAIGIKDSLDVWGRGVLVTVSS
VL: QSVLTQPPSVSGAPGQRVTVSCSGSSSNIGAGNYVQWYQQLPGTAPKVLIYQTEKRPSGTSDRFSGSKSDTSASLTINGLQSEDEADYYCQVYDSNLNGWVFGGGTRLTVL
notes: also called 316L Fab
As to B6, in experiment [5], the Kd (as a rule, the constant that tells how readily two partners part at equilibrium) was 1.26 nM; the koff (as a rule, a measure of how fast the partners let go of each other) came to 0.000139 s⁻¹; the kon (commonly the rate constant with which the complex forms) amounted to 110000 M⁻¹ s⁻¹. Besides, in experiment [6], binding was characterised by a dissociation constant (Kd) of 1.16 nM, the koff amounted to 0.000157 s⁻¹ and the kon came to 135000 M⁻¹ s⁻¹. In experiment [7], the affinity, expressed as Kd, was 38.1 nM; the koff was 0.00263 s⁻¹; the kon worked out at 69000 M⁻¹ s⁻¹.

B7: antibody 314L (antibody, V domains shown)
VH: EERLVESGGGLVQPGGSLRLSCAASGFTFGDYAMHWVRQVPGKSLEWLSGISWSGYTTYSADSVKGRFTISRDNAKNSLYLQMNRLRPEDTGLYYCVTLIGAIGIKDSLDVWGRGVLVTVSS
VL: EVVFTQPHSVSGSPGQMVTISCTRSSGTIDNSYVYWHQQRPGSAPTTVIYNDDQRPSGVPDRFSGSIDSSSNSASLTISGLKSEDEADYYCQSYDSSGWVFGGGTRLTVL
As to B7, the EC50 stood at 1.05 µg/mL in experiment [1] and 1.73 µg/mL in experiment [2].

B8: antibody 206L (antibody, V domains shown)
VH: EVQLVESGGGVVQPGGSLRLSCAASGFTFDDYAMHWVRQAPGKGLEWVSGISWSGGNTYYADSVKGRFTVSRENAKNSLYLQMNRLRAEDTAFYNCARTSQGGAVVFSAPNYWGQGVLVTVSS
VL: QSVLTQAPSVSGAPGQRVTISCTGSSSNIGGYYVQWYQQLPGRAPKLLIYENNKRPSGVSDRFSGSRSASSASLTITGLQSEDEADYYCQSYDSRLNGYIFGGGTRLTVL
For the molecule B8, the EC50 was 2.58 µg/mL in experiment [1] and 0.001 µg/mL in experiment [2]. For the same molecule, the “IC50, microneutralization” value in experiment [3] and in experiment [4] was more than 10 µg/mL each time.
